The text below walks through data of IntAct's records for PubMed 23770679.

First the molecules themselves.
B1: Microtubule protein alp7 (Schizosaccharomyces pombe (strain ATCC 38366 / 972)), Q9URY2 (parent)
chain: MSDIVSSSTDYSRRSPSSSSIGTNETDHTGFHEKRQGASSESLIPPAQRSSEESMPAPKLFPKLTSKPNPQLNLKDTLNKRVSDRLQALELNKSFDFSGTPRPMHPISHPLSQHKTPEFKHRKRNVESILTPKNPSLFSSSNAASQRGSLNTAPSNFAYSHSSSLQTSASSRPPVLSNGSFPRQTNTAPLNPPVHLKDNIRNSATPSTSQADIPTQYPINSTQKQQAKYEAEIEGYKAKLAGTYHEISVLQNTIVNVSGQLIAVNDQLQQLRSGKASTSPSTKDTNMRLVEGHNEETLALQRGKYTQEEVDKLIQERMEKVAEDLHAQYSAKHTQKINAFKANYARKYEATIQELQNQIGTAPNAPKISNSNWEEERRALKADNQTLQKQLEKAIQERQDMSDFLNNFKADMAKSDKLLMQQQSQQTGDLETLRLQLQALQEELRVEREERQQLIQMSEDLVIAMDQLNLEQKS
partner: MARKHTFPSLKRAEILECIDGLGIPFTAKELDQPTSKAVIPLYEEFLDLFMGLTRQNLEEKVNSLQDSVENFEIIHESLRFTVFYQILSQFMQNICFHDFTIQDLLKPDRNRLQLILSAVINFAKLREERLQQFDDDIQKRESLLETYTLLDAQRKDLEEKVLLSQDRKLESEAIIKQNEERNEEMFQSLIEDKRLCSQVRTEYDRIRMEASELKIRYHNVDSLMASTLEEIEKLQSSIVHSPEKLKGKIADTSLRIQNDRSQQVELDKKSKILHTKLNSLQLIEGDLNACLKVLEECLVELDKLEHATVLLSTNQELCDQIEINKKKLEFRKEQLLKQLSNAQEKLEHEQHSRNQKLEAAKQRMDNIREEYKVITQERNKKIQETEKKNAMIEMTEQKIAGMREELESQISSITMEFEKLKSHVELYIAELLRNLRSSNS
B2: Microtubule protein alp7 (Schizosaccharomyces pombe (strain ATCC 38366 / 972)), Q9URY2 (parent)
chain: B1 chain
partner: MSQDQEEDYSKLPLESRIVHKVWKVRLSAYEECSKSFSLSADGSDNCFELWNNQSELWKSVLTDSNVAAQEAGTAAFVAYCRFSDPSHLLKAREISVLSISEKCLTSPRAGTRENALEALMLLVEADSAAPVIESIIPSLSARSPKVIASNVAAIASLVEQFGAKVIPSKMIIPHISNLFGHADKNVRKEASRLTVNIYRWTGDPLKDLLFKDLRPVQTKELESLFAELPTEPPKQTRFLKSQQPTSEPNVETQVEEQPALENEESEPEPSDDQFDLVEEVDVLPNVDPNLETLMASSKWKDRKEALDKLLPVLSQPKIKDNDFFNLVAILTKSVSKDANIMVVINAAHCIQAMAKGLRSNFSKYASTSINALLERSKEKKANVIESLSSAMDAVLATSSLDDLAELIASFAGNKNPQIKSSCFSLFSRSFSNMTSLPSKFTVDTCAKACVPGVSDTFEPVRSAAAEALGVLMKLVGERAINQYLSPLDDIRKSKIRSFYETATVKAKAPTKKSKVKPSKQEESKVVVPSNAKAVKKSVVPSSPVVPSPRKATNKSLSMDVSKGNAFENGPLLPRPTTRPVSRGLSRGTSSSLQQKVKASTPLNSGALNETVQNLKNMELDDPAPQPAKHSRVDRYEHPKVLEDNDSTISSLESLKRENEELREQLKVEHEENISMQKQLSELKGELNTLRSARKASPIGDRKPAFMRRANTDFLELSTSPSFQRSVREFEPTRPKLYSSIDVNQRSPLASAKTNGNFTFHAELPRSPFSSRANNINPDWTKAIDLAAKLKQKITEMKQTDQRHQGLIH

Variants of B1 are the subject of one experiment. To be noted: with nuf2_schpo nuf2, Q10173.
In the case of S248A;T297A;T351A;S402A, the “effect of a mutation on the interaction” value is given as “disrupting interaction strength”.

Another experiment covers variants of B2. To be noted: with alp14_schpo alp14, O94534.
For L461A, the “effect of a mutation on the interaction” value was “disrupting interaction strength”.
